The source of these data is PMC5467207, “Single-peptide DNA-dependent RNA polymerase homologous to multi-subunit RNA polymerase” (Nature Communications, 2017).

The test system of data set [1] is T1, Nc1nc2c(ncn2[C@@H]2O[C@H](COP(=O)(O)OP(=O)(O)OP(=O)(O)O)[C@@H](O)[C@H]2O)c(=O)[nH]1.
T1 construct: core enzyme without sigma, ~400 kDa five-subunit core (2α, β, β′, ω); 6xHis tag on the RNAP; with DNA-directed RNA polymerase subunit alpha; DNA-directed RNA polymerase subunit omega
The data set can be described thus: misincorporation in assembled elongation complexes, Urea-PAGE, Michaelis-Menten fit. It counts as biochemical, Escherichia coli. The following applies: misincorporation (non-cognate NTP for the template base), assembled elongation complex, pH 8.5, MgCl2.

Substrate in data set [2]: Nc1ncnc2c1ncn2[C@@H]1O[C@H](COP(=O)(O)OP(=O)(O)OP(=O)(O)O)[C@@H](O)[C@H]1O
The data set can be described thus: RNA extension in assembled elongation complexes, Urea-PAGE, Michaelis-Menten fit. It counts as biochemical, Bacillus subtilis. The following applies: 10 °C, assembled elongation complex (template DNA, RNA primer), 20 mM Tris-HCl pH 8.5, 40 mM KCl, 10 mM MgCl2.

Substrate in data set [3]: Nc1nc2c(ncn2[C@@H]2O[C@H](COP(=O)(O)OP(=O)(O)OP(=O)(O)O)[C@@H](O)[C@H]2O)c(=O)[nH]1
Put plainly: misincorporation in assembled elongation complexes, Urea-PAGE, Michaelis-Menten fit. Format: biochemical, Bacillus subtilis. The following applies: misincorporation (non-cognate NTP for the template base), assembled elongation complex, pH 8.5, MgCl2.

With “E. coli core msRNAP (Escherichia coli K-12)”, the Km in data set [1] was 458 ± 23 µM.

B1: YonO (Bacillus subtilis subsp. subtilis str. 168) (protein)
chain: MKGKKDGLNKQVHIYSIDTSAFYNDQENKLHNKILKSYRYRDHLRKLEHVDKKHKKYITQRIISLKEKLYNAFNDHNQIRTLRTDSLKDNNVISLFDSVLTRTLGIKENSLSEEIMVVQTYHFQILRDIIDKGFIHNNEKYVYFTSSAGQIRTKKSCFIKQSTLDKYQNALTCGLSVEHINAQGGSSINKWNSYMALSNSASSSWEIDIDKAIVVNDLETNVSSLVDYIDRDTYEITRKIMDIPIEHTDGCGMMLPSLSQKSFMVRLPWVKGLLVPFDFRKFAEKHSSFIVKDVYGKEWDIIKDDIQIIFTKSQFKMWKYYDSWDDYRYKFKKYGCLGAKLNEEDPSVEGKLTYQMLQTLTDITDEELKQISSKTVSEITQLGTDKETMMKVLGATEKNKHKTSLQEALLIYPELLNDDHTKEIIKNKKKSMIKDAKSGKLLVSDARYTYLCPDLYAFCERLFLGIESPKGLLSGSDVHCSLYDEGYIDILRSPHLFREHGVRWNKKNEEYEKWFITPGVYTSIHDPISKLLQFDNDGDKALIISDELIVNIAKRNMADIVPLYYEMSVAQKQEINSRNIYEALTLAYGINIGEYSNNITKIWNSDNINLDVIKWLCMENNFTIDFAKTLFMPTRPDHVDEKIKDYIKNKVPHFFINAKDKEEHSVESINESTVNKLDSIIPSDRINFAAVAGKFDYRFLLKNKEIKLNEAVINEYKRLDRNKKWLMNDEEAKPGQKLYVYKIIKQKLLEIHNDDGFITDVLVKHLYKKKSKYKSTLWECFGDIVLENIKHNLKTFKGCCICGKAFKPTSNKAKYCQSCGKKKERDKYKKYNKKRINHR
notes: N-terminal 6xHis-tag, pET-28a, expressed in E. coli T7 Express; single chain, ~100 kDa
With B1, the Km was determined as 1.8 ± 0.7 µM in data set [2] and 126 ± 41 µM in data set [3].

By Km is commonly meant the concentration of substrate that gives half-maximal velocity.
